Changes are numbered by the printed parent chain. Numbers in names are those of the source.
B1: Flag-tagged RhoC (wild type), P08134 F154A; L157A (protein)
chain: MAAIRKKLVIVGDGACGKTCLLIVFSKDQFPEVYVPTVFENYIADIEVDGKQVELALWDTAGQEDYDRLRPLSYPDTDVILMCFSIDSPDSLENIPEKWTPEVKHFCPNVPIILVGNKKDLRQDEHTRRELAKMKQEPVRSEEGRDMANRISAAGYAECSAKTKEGVREVFEMATRAGLQVRKNKRRRGCPIL
B2: Flag-tagged RhoC (wild type), P08134 Y66A; L69A (protein)
chain: B1 chain with Y66A, L69A, A154F, A157L
B3: Flag-tagged RhoC (wild type), P08134 F30A; V33A (protein)
chain: B1 chain with F30A, V33A, A154F, A157L
B4: Flag-tagged RhoC (wild type), P08134 Y66A; L69A; F154A; L157A (protein)
chain: B1 chain with Y66A, L69A

What follows are binders tested against V5-LC3, Q9GZQ8 (assay: co-immunoprecipitation (Flag IP), western blot band quantification). Conditions: chain shown with the change; HEK293T cells expressing V5-LC3 and Flag-RhoC; n = 3; parent: est. 4.6; read off a plot; scale: relative IP LC3-II protein level.

Row | response | Binder
1 | 1.2 | B1
2 | 2.1 | B2
3 | 4.7 | B3
4 | 1 | B4
